Measurements reported in patent US20190142724A1 (CREDENTIS, published 2019).
No end group written: not given here.

Target: the molecule itself
Experiment: rheology (elastic modulus G'), P11-4 at 15 mg/ml in different buffers, 37 C; homotypic self-assembly
Procedure: P11-4 was prepared at 15 mg/ml with different buffer compositions (see below) measured at 0.1% strain, 37° C. and a frequency of 1 rad/second. Self-assembly of peptide monomers to polymers takes more than 5 min independent of the used ionic strength at neutral pH.

QQRFEWEFEQQ (not fully specified; printed as Gln-Gln-Arg-Phe-Glu-Trp-Glu-Phe-Glu-Gln-Gln) [self-assembling peptide P11-4]: binds.
